IntAct's records for PubMed 29039417

B1: Isoform 2 of Bardet-Biedl syndrome 7 protein (Homo sapiens), Q8IWZ6-2 (parent)
chain: MDLILNRMDYLQVGVTSQKTMKLIPASRHRATQKVVIGDHDGVVMCFGMKKGEAAAVFKTLPGPKIARLELGGVINTPQEKIFIAAASEIRGFTKRGKQFLSFETNLTESIKAMHISGSDLFLSASYIYNHYCDCKDQHYYLSGDKINDVICLPVERLSRITPVLACQDRVLRVLQGSDVMYAVEVPGPPTVLALHNGNGGDSGEDLLFGTSDGKLALIQITTSKPVRKWEIQNEKKRGGILCIDSFDIVGDGVKDLLVGRDDGMVEVYSFDNANEPVLRFDQMLSESVTSIQGGCVGKDSYDEIVVSTYSGWVTGLTTEPIHKESGPGEELKINQEMQNKISSLRNELEHLQYKVLQERENYQQSSQSSKAKSAVPSFGINDKFTLNKDDASYSLILEVQTAIDNVLIQSDVPIDLLDVDKNSAVVSFSSCDSESNDNFLLATYRCQADTTRLELKIRSIEGQYGTLQAYVTPRIQPKTCQVRQYHIKPLSLHQRTHFIDHDRPMNTLTLTGQFSFAEVHSWVVFCLPEVPEKPPAGECVTFYFQNTFLDTQLESTYRKGEGVFKSDNISTISILKDVLSKEATKRKINLNISYEINEVSVKHTLKLIHPKLEYQLLLAKKVQLIDALKELQIHEGNTNFLIPEYHCILEEADHLQEEYKKQPAHLERLYG
partner: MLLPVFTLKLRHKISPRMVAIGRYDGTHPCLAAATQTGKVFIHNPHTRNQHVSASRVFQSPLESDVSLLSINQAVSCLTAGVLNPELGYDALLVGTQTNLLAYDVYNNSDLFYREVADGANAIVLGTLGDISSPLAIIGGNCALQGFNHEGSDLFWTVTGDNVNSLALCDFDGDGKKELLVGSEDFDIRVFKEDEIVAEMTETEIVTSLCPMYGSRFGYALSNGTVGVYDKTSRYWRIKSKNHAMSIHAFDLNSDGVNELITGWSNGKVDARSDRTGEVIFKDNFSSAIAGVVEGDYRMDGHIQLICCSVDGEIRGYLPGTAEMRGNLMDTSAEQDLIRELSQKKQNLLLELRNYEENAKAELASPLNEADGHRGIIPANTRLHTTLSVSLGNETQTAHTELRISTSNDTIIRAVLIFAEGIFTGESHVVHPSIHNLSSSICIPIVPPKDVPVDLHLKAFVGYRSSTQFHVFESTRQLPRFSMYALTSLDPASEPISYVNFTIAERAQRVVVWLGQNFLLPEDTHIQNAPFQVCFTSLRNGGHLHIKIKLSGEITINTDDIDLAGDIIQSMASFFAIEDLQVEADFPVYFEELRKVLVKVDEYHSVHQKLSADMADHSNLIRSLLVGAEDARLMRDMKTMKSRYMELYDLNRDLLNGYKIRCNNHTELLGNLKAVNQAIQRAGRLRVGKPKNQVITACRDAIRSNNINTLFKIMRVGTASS

Variants of: B1
Details: with bbs2_human BBS2, Q9BXC9

Variant	effect of a mutation on the interaction
S516K	with no effect
K373A	with no effect
V426E	with no effect
V541E	with no effect
I381A	with no effect
I381K	with no effect
I381E	with no effect
W523K	with no effect
K534A	with no effect
Y471E	with no effect
V483A	with no effect
V483E	with no effect
A375K	with no effect
S434A	with no effect
S367E	with no effect
F429A	with no effect
L442K	with no effect
L408K	with no effect
Q365A	with no effect
D405K	with no effect
Q469E	with no effect
D383E	with no effect
T451K	with no effect
V531E	with no effect
Y354E	with no effect
R504E	with no effect
L396E	with no effect

Variant	effect of a mutation on the interaction
N406K	with no effect
F379E	with no effect
S374E	with no effect
L352K	with no effect
L468P	disrupting interaction strength
P536E	with no effect
T512E	with no effect
I458Q	disrupting interaction strength
R475A	disrupting interaction strength
F440A	with no effect
E519A	with no effect
N437E	with no effect
L398K	with no effect
G538A	with no effect
I342K	with no effect
N388K	with no effect
V520A	with no effect
F526E	with no effect
E435A	with no effect
L493K	with no effect
T497A	with no effect
R453K	with no effect
C540A	with no effect
R360K	with no effect
Q485E	with no effect
P328K	with no effect
P377K	with no effect

Variant	effect of a mutation on the interaction
S522K	with no effect
F499K	with no effect
C481R	disrupting interaction strength
C447Y	disrupting interaction strength
C447E	with no effect
E399V	disrupting interaction strength
Q353K	with no effect
S366K	with no effect
N335K	with no effect
I404E	with no effect
R346K	with no effect
A470K	with no effect
N423K	with no effect
E331K	with no effect
L509K	with no effect
L509E	with no effect
Q448K	disrupting interaction strength
Q448E	with no effect
Q401A	with no effect
L418E	with no effect
D419K	with no effect
K371A	with no effect
Q368A	with no effect
F517K	with no effect
F517A	with no effect
T452K	with no effect
T452A	with no effect

Variant	effect of a mutation on the interaction
I334E	with no effect
S393K	with no effect
G380K	with no effect
S424A	with no effect
Y465A	with no effect
R484K	with no effect
F385E	with no effect
Y445A	with no effect
Y445K	with no effect
H487K	with no effect
H487E	with no effect
G327K	with no effect
Q358A	with no effect
G513E	with no effect
G513A	with no effect
G513K	with no effect
I500A	with no effect
I500K	with no effect
S436A	with no effect
S492K	with no effect
S411A	with no effect
D421E	with no effect
P529C	disrupting interaction strength
L441E	with no effect

More lines, now with the values ahead:

effect of a mutation on the interaction	Variant
with no effect	N598A
with no effect	S567A
with no effect	S567E
with no effect	V541K
with no effect	I634E
with no effect	K560E
with no effect	P644A
with no effect	L617A
with no effect	L576A
with no effect	E668A
with no effect	Y671K
with no effect	Y671E
with no effect	A665E
with no effect	H604A
with no effect	L656A
with no effect	N590K
with no effect	H635A
with no effect	L625K
with no effect	F565A
with no effect	Y615A
with no effect	I589A
with no effect	I643E
disrupting interaction strength	T548S
with no effect	T548E
with no effect	T548A
with no effect	E583K

effect of a mutation on the interaction	Variant
with no effect	I575A
with no effect	S594E
with no effect	S594K
disrupting interaction strength	Q624S
with no effect	H655K
with no effect	E658K
with no effect	E599K
with no effect	L629E
with no effect	I609A
with no effect	S601A
with no effect	S581K
with no effect	N592A
with no effect	I573A
with no effect	I573K
with no effect	G637E
with no effect	G637A
with no effect	F641A
with no effect	Q553A
with no effect	R587A
with no effect	L591K
with no effect	L591E
disrupting interaction strength	Q616D
with no effect	N569A
with no effect	N569K
with no effect	H647K
with no effect	T557E

effect of a mutation on the interaction	Variant
with no effect	T572A
with no effect	Q657E
with no effect	Q657K
with no effect	G561A
with no effect	F545A
with no effect	L613E
with no effect	K621A
with no effect	L618A
with no effect	V623E
with no effect	L550E
with no effect	L632E
with no effect	K603E
with no effect	K603A
with no effect	P611K
with no effect	L608A
with no effect	E659K
with no effect	D627E
with no effect	N638A
with no effect	I593A
with no effect	K622E
with no effect	C648K
with no effect	C648A
with no effect	C648E
with no effect	I649E
with no effect	S556E
